In patent publication US20230357447A1 (JANUX THERAPEUTICS, published 2023):

Legend:
[1] = molecular target: T1, Anti-CD28 scFv (VH-linker 1-VL) (biotinylated for capture on neutravidin plates); assay: phage ELISA, scFv captured on plate, competitor soluble CD28;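 also: crude clonal phage supernatants added to wells pre-incubated with soluble CD28 or with blocking buffer only as control, bound phage read out with HRP-linked anti-M13 antibody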
Procedure: (§1) Clonal phage were harvested as crude supernatants and screened via standard enzyme linked immunosorbent assays (ELISAs). […] Prior to the addition of clonal phage, wells were incubated with blocking buffer and CD28 soluble protein or blocking buffer alone. Without washing or aspirating, clonal phage supernatants were then added to the wells and incubated for a short time. Wells were then washed followed by detection of bound phage using a horse radish peroxidase conjugated anti-M13 antibody.

[2] = molecular target: T1, Anti-CD28 scFv (VH-linker 1-VL); assay: phage ELISA, scFv captured on plate;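 also: crude clonal phage supernatants added to wells preincubated with soluble CD28 or with blocking buffer only, bound phage read out by HRP-linked anti-M13 antibody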
Procedure: as §1

[3] = molecular target: T2, anti-CD28 scFv (VH-linker 1-VL) (biotinylated (site not stated)); assay: phage ELISA; scFv wells pre-incubated with soluble CD28 (competitor);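 also: crude clonal phage supernatants added to wells pretreated with soluble CD28 in blocking buffer, bound phage read via HRP-linked anti-M13 antibody, reference wells got blocking buffer only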
T2 construct: Captured as biotinylated scFv on neutravidin coated plates in the phage ELISA
T2 sequence (scFv, as listed by the source): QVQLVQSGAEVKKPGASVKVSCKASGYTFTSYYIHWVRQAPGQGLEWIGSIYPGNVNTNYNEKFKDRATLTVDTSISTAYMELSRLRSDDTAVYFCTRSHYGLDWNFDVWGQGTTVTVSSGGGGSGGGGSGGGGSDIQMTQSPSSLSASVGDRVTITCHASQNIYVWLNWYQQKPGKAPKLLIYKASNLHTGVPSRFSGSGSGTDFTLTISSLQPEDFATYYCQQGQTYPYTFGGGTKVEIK

T1 sequence (scFv, as listed by the source): as above

Binder | Phage binding ELISA CD28 scFv signal in presence of CD28 [1] | Phage binding ELISA CD28 scFv signal [2] | CD28 scFv signal in presence of CD28 [3]
MDWCPMNLWSECFN [Phage-173] | 0.124 | 0.67 | 
MFWCPRYLWHECFN [Phage-163] | 0.175 | 1.08 | 
MDWCPKHMWFMCFN [Phage-195] | 0.372 | 2.4 | 
MNWCPSDLWHLCFN [Phage-170] | 0.131 | 0.739 | 
MDWCPRDMWDQCFD [Phage-201] | 0.119 | 2.29 | 
MHWCPRSLWNECYF [Phage-182] | 0.115 | 0.456 | 
MNWCPSYMWDQCFA [Phage-213] | 0.105 | 0.854 | 
MDWCPRHLWTECFS (on phage (pIII fusion)) [Phage-297 clonal phage peptide] |  |  | 0.243
MNWCPSHLWHMCYF [Phage-171] | 0.192 | 0.702 | 
MDWCPPYLWYECFA [Phage-172] | 0.094 | 0.692 | 
MDWCPRNMWAQCFA [Phage-199] | 0.209 | 2.31 | 
DVWCPKYMWSLCFN [Phage-192] | 0.418 | 2.53 | 
MDWCPRDMWYECFN [Phage-191] | 0.235 | 2.56 | 
MDWCPSYLWDQCFF [Phage-188] | 0.079 | 0.083 | 
MDWCPRAMWNHCFN [Phage-198] | 0.426 | 2.33 | 
IDWCPQDMWFYCFN [Phage-209] | 0.16 | 1.42 | 
IDWCPRDLWALCFN [Phage-183] | 0.129 | 0.37 | 
MDWCPKDLWHECFN [Phage-168] | 0.1 | 0.762 | 
MDWCPKHLWNECFN [Phage-174] | 0.105 | 0.663 | 
MDWCPVSLWDHCFN [Phage-177] | 0.1 | 0.616 | 
MDWCPTDMWHHCFL [Phage-205] | 0.126 | 2.2 | 
MDWCPSDMWHECYA [Phage-194] | 0.2 | 2.47 | 
MDWCPWILWNECFN [Phage-179] | 0.137 | 0.581 | 
MDWCPTDMWIVCFA [Phage-208] | 0.172 | 1.5 | 
MHWCPINLWNECFS [Phage-184] | 0.098 | 0.316 | 
MDWCPMDMWVNCFN [Phage-193] | 0.277 | 2.52 | 

Binder | Phage binding ELISA CD28 scFv signal in presence of CD28 [1] | Phage binding ELISA CD28 scFv signal [2] | CD28 scFv signal in presence of CD28 [3]
VDWCPRYLWHVCYN [Phage-189] | 0.061 | 0.065 | 
MDWCPRDMWAECFF [Phage-190] | 2.26 | 2.69 | 
MDWCPRDMWFECFA [Phage-210] | 0.143 | 1.31 | 
MDWCPRYMWNECFN [Phage-215] | 0.128 | 0.687 | 
MDWCPTYMWSECFN [Phage-214] | 0.107 | 0.754 | 
MDWCPRYMWYQCFS [Phage-196] | 0.357 | 2.36 | 
MDWCPRAMWHECFY [Phage-207] | 0.129 | 1.92 | 
MDWCPAYLWAECFS [Phage-175] | 0.12 | 0.64 | 
MFWCPFDMWHFCFN [Phage-200] | 0.469 | 2.29 | 
IHWCPINMWDKCYN [Phage-206] | 0.203 | 2.08 | 
MDWCPRAMWDKCFF [Phage-212] | 0.094 | 0.985 | 
MSWCPRDMWFYCYA [Phage-203] | 0.174 | 2.25 | 
QDWCPTYLWHHCFN [Phage-186] | 0.122 | 0.123 | 
MDWCPLYLWAECFN (on phage (pIII fusion)) [Phage-298 clonal phage peptide] |  |  | 0.193
MDWCPRHMWYECFF [Phage-197] | 0.298 | 2.34 | 
MDWCPMNMWYQCFN [Phage-216] | 0.137 | 0.639 | 
MDWCPRDLWNLCFF (on phage (pIII fusion)) [Phage-236 clonal phage peptide] |  |  | 0.436
MDWCPRSIWYLCFN (on phage (pIII fusion)) [Phage-278 clonal phage peptide] |  |  | 1.34
MDWCPRFMWDLCFA (on phage (pIII fusion)) [Phage-265 clonal phage peptide] |  |  | 0.725
MYWCPRDLWDVCFN [Phage-181] | 0.102 | 0.512 | 
IGKLTLCLNADLVI [Phage-187] | 0.1 | 0.116 | 
MDWCPFYLWDECFL [Phage-165] | 0.141 | 1.02 | 
MDWCPKFLWDLCFA [Phage-164] | 0.139 | 1.07 | 
MDWCPSDLWHECFH [Phage-176] | 0.164 | 0.629 | 
MSWCPQDLWHVCFN [Phage-167] | 0.112 | 0.86 | 
MFWCPMDMWDQCFN [Phage-202] | 0.207 | 2.26 | 
